Source: patent US10758526B2, “Combination therapies using agents that target tumor-associated stroma or tumor cells and other pathways” (BIOMED VALLEY DISCOVERIES, INC., priority 2014, dated 2020)

Experiments:
[1] = tested on: HCT116 colorectal carcinoma xenograft; experiment: Efficacy of TEM8 antibodies in the HCT116 colorectal carcinoma xenograft model; type: in vivo, mice; conditions: HCT116 Colon; M830 alone; IP, 3 times per week; treatment initiated at 60-80 mm^3
Protocol: Tumor cells were cultured in RPMI-1640 medium supplemented with 10% fetal bovine serum, 2 mM glutamine, 100 units/mL penicillin G sodium, 100 μg/mL streptomycin sulfate, and 25 μg/mL gentamicin. The tumor cells were grown in tissue culture flasks in a humidified incubator at 37° C., in an atmosphere of 5% CO2 and 95% air.
2.5×10^6 to 5×10^6 HCT116 tumor cells were injected subcutaneously into the flank of mice. Tumor weights were calculated following surgical removal. Treatment was initiated when tumor volume reached 60-80 mm^3. Dosing volume was 10 mL/kg (0.2 mL/20 g mouse).
TEM8 Ab (hIgG1) doses were 5 and 15 mg/kg, three times per week, for 3 weeks. Bevacizumab was dosed at 5 mg/kg, twice per week, for 3 weeks. FIG. 1B and FIG. 1D show mean tumor growth and percent body weight change for each group, respectively, over the time course of the study.

UACC melanoma cells = experiment: TEM8 antibody efficacy in UACC melanoma model; type: in vivo, mice
Protocol: UACC melanoma cells were cultured and injected subcutaneously into mice. Treatment was initiated with a tumor volume of 50 mm^3, and treatment groups consisted of one of four TEM8 antibodies (M825, M830, M863, and M822), each dosed at 15 mg/kg, 3 times per week for 3-4 weeks.

[2] = tested on: H460 non-small cell lung carcinoma xenograft; experiment: Efficacy of M830 in the H460 non-small cell lung carcinoma xenograft model; type: in vivo, athymic nude mice; conditions: for % Tumor Reduction vs. Vehicle at Day 21: 3 times per week; for % Tumor Reduction vs. combination partner at Day (#): Day 32
Protocol: Animals were monitored for regression responses.
The statistical tests were not adjusted for multiple comparisons.
Cultured H460 cells were harvested during exponential growth and resuspended in phosphate buffered saline at a concentration of 1×10^8 cells/mL. 1.0×10^7 tumor cells were injected subcutaneously into the flank of athymic nude mice. Animals were euthanized when tumors reached the pre-determined volume endpoint of 2000 mm^3 or on the final day (Day 88), whichever came first.

[3] = tested on: DLD-1 colorectal adenocarcinoma xenograft; experiment: Efficacy of M830 alone and in combination in the DLD-1 colorectal adenocarcinoma xenograft model; type: in vivo, mice; conditions: for % Tumor Reduction vs. Vehicle at Day 21 / % Tumor Reduction vs. combination partner at Day (#): DLD1 Colon; for % Tumor Reduction vs. Vehicle at Day 21: 3 times per week; for % Tumor Reduction vs. combination partner at Day (#): Day 21; for combination compared with any agent alone / efficacy against DLD-1 cancer cells in the xenograft model: first study
Protocol: Tumor weights were calculated following surgical removal. […] Irinotecan was given once per week at 60 mg/kg i.v. and bevacizumab was dosed at 5 mg/kg i.p., three times per week.
In a second study, treatment was initiated with a large tumor volume of approximately 170 mm^3. M830 alone or in combinations with bevacizumab, irinotecan, or both, was given as a loading dose of 20 mg/kg followed by 5 mg/kg three times per week. The doses of bevacizumab and irinotecan were the same as in the first study. An additional group received a combination of bevacizumab and irinotecan without the M830 antibody.

[4] = tested on: MC38 colon carcinoma liver metastasis; experiment: Efficacy of M830 in MC38 colon carcinoma liver metastasis model; type: in vivo, C57BL/6 mice
Excerpt: C57BL/6 mice were challenged with MC38 colon carcinoma liver metastasis by intrasplenic injections of cultured cells.

mTEM8-Fc = target: T1, mTEM8-Fc (Mus musculus, UniProt Q9CZ52); experiment: Biocore affinity measurement of anti-TEM8 Fabs, mTEM8-Fc; type: binding
T1 construct: Fc
T1 sequence (Q9CZ52 31-319 limits assumed): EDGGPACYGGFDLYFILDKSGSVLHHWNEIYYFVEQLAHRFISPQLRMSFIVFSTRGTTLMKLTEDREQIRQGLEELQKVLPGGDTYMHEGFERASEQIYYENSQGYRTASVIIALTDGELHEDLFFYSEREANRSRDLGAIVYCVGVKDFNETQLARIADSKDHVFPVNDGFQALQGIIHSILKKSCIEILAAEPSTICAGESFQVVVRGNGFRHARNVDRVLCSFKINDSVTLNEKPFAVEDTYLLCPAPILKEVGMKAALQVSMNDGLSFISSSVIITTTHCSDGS

hTEM8-AP = target: T2, hTEM8-AP (Homo sapiens, UniProt Q9H6X2); experiment: Biocore affinity measurement of anti-TEM8 Fabs, hTEM8-AP; type: binding
T2 sequence (Q9H6X2 33-321 limits assumed): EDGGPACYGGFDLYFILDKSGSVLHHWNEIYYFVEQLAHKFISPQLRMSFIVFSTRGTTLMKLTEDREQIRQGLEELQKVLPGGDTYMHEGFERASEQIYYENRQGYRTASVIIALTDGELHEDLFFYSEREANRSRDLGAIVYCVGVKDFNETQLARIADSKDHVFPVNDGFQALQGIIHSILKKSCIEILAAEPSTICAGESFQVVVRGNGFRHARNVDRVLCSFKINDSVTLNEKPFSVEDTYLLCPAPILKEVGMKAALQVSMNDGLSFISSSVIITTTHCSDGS

[5] = Pharmacokinetics of TEM8 antibodies in mouse, single dose; type: in vivo
Excerpt: (§1) Tables 8 and 9 show pharmacokinetic properties of TEM8 antibodies according to the present invention in mouse for single dose (Table 8) and multiple dose (Table 9) treatments.

[6] = Pharmacokinetics of TEM8 antibodies in mouse, multiple dose; type: in vivo
Excerpt: as §1

[7] = Group 7: M830 in combination with paclitaxel, n=10
[8] = H460 Lung, combination partner Paclitaxel
[9] = M830 15 mg/kg IP in combination with bevacizumab 5 mg/kg IP
[10] = M830 in combination with bevacizumab, n=10
[11] = combination of M830 and paclitaxel

B1: M830: TEM8 monoclonal antibody (hIgG1), VH SEQ ID NO:5 and VL SEQ ID NO:6 (antibody, V domains shown)
VH: EVQLVESGGGVVQPGRSVRLSCAASGFTFSTYTMHWVRQAPGKGLEWVAIISNDGSNKYYADPVRGRFTISRDNSKNTLYLQMNSLRAEDTAVYYCVRGSSWYRGNWFDPWGQGTLVTVSS
VL: DIQMTQSPSSLSASVGDRVTIACRASQTISRYLNWYQQKPGKAPKLLIYAASSLQSGVSSRFSGSGSGTEFTLTISSLQPEDFATYFCQQTYSPPITFGQGTRLEIKR
modifications: TEM830 mAb VH; TEM830 mAb VL
[1]
  % Tumor Reduction vs. Vehicle at Day 21: 39.5%
UACC melanoma cells; 15 mg/kg, 3 times per week for 3-4 weeks, treatment initiated at 50 mm^3
  slowing of tumor growth: effective at slowing tumor growth
UACC melanoma cells; UACC Melanoma, M830 alone, IP, 3 times per week, treatment initiated at about 50 mm^3
  % Tumor Reduction vs. Vehicle at Day 21: 65%
[2]; Group 7: M830 15 mg/kg IP in combination with paclitaxel 30 mg/kg IV, maximum possible TGD 65.2 days (286%) for the 88-day study
  TGD: maximum TGD
[2]; Group 7: M830 15 mg/kg IP in combination with paclitaxel 30 mg/kg IV, n=10
  regression responses: 90%
[2]; [7]
  CRs (complete regressions): seven
  PRs (partial regressions): two
  TFS (tumor-free survivors) at study end: three
[2]; H460 Lung, M830 alone, IP
  % Tumor Reduction vs. Vehicle at Day 21: 62%
[2]; H460 Lung, combination partner Bevacizumab
  % Tumor Reduction vs. combination partner at Day (#): 58.5% (32)
[2]; H460 Lung, combination partner Bevacizumab, M830 IP
  % Tumor Reduction vs. Vehicle at Day 21: 94.5%
[2]; [8]
  regression (in cell of % Tumor Reduction vs. Vehicle at Day 21): −61%
  % Tumor Reduction vs. combination partner at Day (#): 94% (32)
[2]; H460 Lung, combination partner Paclitaxel, M830 IP, treatment initiated at 60-80 mm^3
  % Tumor Reduction vs. Vehicle at Day 21: > 100%
[2]; [9]
  % TGD: 146%
  TGD: 33.2 days
[2]; [10]
  CRs (complete regressions): 3
  PR (partial regressions): 1
  TFS (tumor-free survivors) at study end: three
  regression responses: 40%
[2]; M830 in combination with paclitaxel
  rank of activity among regimens: most active treatment regimen tested
[2]; [11]
  combination compared with either agent alone: more effective than either agent alone
  efficacy against H460 cancer cells in the xenograft model: effective
[3]; M830 alone, IP
  % Tumor Reduction vs. Vehicle at Day 21: 68%
[3]; combination partner Bevacizumab
  % Tumor Reduction vs. combination partner at Day (#): 48% (21)
[3]; combination partner Bevacizumab, M830 IP
  % Tumor Reduction vs. Vehicle at Day 21: 86%
[3]; combination partner Irinotecan
  % Tumor Reduction vs. combination partner at Day (#): 53% (21)
[3]; combination partner Irinotecan, M830 IP, treatment initiated at about 50 mm^3
  % Tumor Reduction vs. Vehicle at Day 21: 86%
[3]; combination M830/bevacizumab
  combination compared with any agent alone: more effective than any agent alone
  efficacy against DLD-1 cancer cells in the xenograft model: effective
[3]; combination M830/irinotecan
  combination compared with any agent alone: more effective than any agent alone
  efficacy against DLD-1 cancer cells in the xenograft model: effective
[3]; second study, M830 with bevacizumab and irinotecan
  triple combination compared with M830/bevacizumab combination: did not outperform the M830/bevacizumab combination therapy
[4]; P=0.0001
  survival of mice: significantly improved the survival
[4]; versus 11 days for vehicle treated mice
  median survival rate: 17 days
mTEM8-Fc
  ka: 774900 M⁻¹ s⁻¹
  kd: 0.002901 s⁻¹
hTEM8-AP
  ka: 607100 M⁻¹ s⁻¹
  kd: 0.0009533 s⁻¹
[5]; 5 mg/kg
  AUCI: 2242.485 µg·h/mL
  AUCT: 2242.286 µg·h/mL
  CLF: 2.23 mL/h/kg
  CMAX: 67500 ng/mL
  HALF: 8.54 h
  KEL: 0.0811 h⁻¹
  TMAX: 3 h
  VZF: 0.02748 L/kg
[5]; 15 mg/kg
  AUCI: 10692.742 µg·h/mL
  AUCT: 10692.598 µg·h/mL
  CLF: 1.40 mL/h/kg
  CMAX: 203000 ng/mL
  HALF: 14.94 h
  KEL: 0.0464 h⁻¹
  TMAX: 3 h
  VZF: 0.03024 L/kg
[6]; 5 mg/kg
  AUCI: 4316.79 µg·h/mL
  AUCT: 4315.918 µg·h/mL
  CLF: 1.16 mL/h/kg
  CMAX: 86400 ng/mL
  HALF: 22.88 h
  KEL: 0.0303 h⁻¹
  TMAX: 3 h
  VZF: 0.03824 L/kg
[6]; 15 mg/kg
  AUCI: 23053.875 µg·h/mL
  AUCT: 23052.853 µg·h/mL
  CLF: 0.65 mL/h/kg
  CMAX: 330000 ng/mL
  HALF: 18.70 h
  KEL: 0.0371 h⁻¹
  TMAX: 3 h
  VZF: 0.01755 L/kg
